Substrate in this series: O=[N+]([O-])c1ccc(O[C@H]2O[C@H](CO)[C@H](O)[C@H](O)[C@H]2O)cc1
The series is described as follows: purified protein. Particulars: optimized conditions: 37 °C, pH 6.0, 10 min, 0-8 mM substrate.

As usually defined, the Km is the substrate concentration at which the rate is half of its maximum.

B1: Amuc_0517 (Akkermansia muciniphila ATCC BAA-835) (protein)
chain: QPRTTAILPVPGEKACRLPLPPYQAFCWFSADRGRWPGDGNRVLPWFGRTAPGNLLDSKPNPSTAKPGDHAMFALFHLKDGNFMAVLPVAAPDSLAWLKLERDGTFLVEAGSLGTSPAKPQAVLAVTATDKDIYRACSAVWDKALSLPFIKGRTLPREKKIYPEPFKYLGWCSWEQYKKNISSKLLEETARKLEASPVPVRWMLVDDGFQTQERLQLVSFQPRQDQFPRGWQPLMKHKSPKLKWMGLWHCYYGLWNGIHPRHRLDDETARGLVRTAKGKILPGDGSGGAGAFYTPFLQSVKDTGFDFVKIDVQAEYLKHADGLDNPVRHNTKCSEALEQACLKTGLSLVNCMAQGTVNIQNTRYSAVTRCSIDYKLGDEAMAKSHILQSYANTLWLGQTVWPDHDMFHSTDPACARLMAVSKAVSGGPVYLSDPADKLNPENIMPLVWSDGLLLRPLAPAVPLPDSVFPDALNENRLYRVIAPLPGQSAAVVVYNLKHPSPAEPVRGKISLEDYKNAAALLNGNAAEAYASLPAEGIAAYSAEGGRALTPAQPDLDVELTGFKDRLFIMAPIVQGWAVIGRRDKFLSPCALVSAPGYRENGLRFRVKESGPVVIWRGKGPVKAGNTPVRNLGNGFYELQFPVSDHPLDITVTAE
B1: the Michaelis constant (Km) amounted to 8.2 mM.

Values taken from PMC12610585.
